This is an account of results in US9920295B2, “Bioreactor for isolation of rare cells and methods of use” (The Trustees of the University of Pennsylvania, priority 2012, dated 2018).

This assay deals with CD34+-derived cells. As to the kind of experiment: Apoptosis by cleaved caspase-3 intracellular flow cytometry and Annexin-V. Type of assay: cell-based, human. Conditions: G-CSF 100 ng/ml; CH-223191 500 nM (4n fraction). Here is the method:
Cells were fixed with 4% paraformaldehyde in PBS for 10 min, washed with PBS and resuspended in 0.1% saponin in HBSS (staining medium). The samples were then stained with antibodies against cytoplasmic antigens, including NMM-IIA (Sigma), NMM-IIB, phospho-NMM-IIA and caspase-3 (all from Cell Signaling Technology) for 30 min at room temperature. In some cases, cells were concurrently stained with PE anti-CD34 or anti-human CD38 for subpopulation analysis. Cells were then washed and stained with anti-rabbit or mouse secondary antibodies conjugated with Alexa 647 (Invitrogen) for 30 min, followed by analysis on FACSCalibur.
(In general: In flow cytometry, cells or beads pass a laser one at a time.)

B1: G-CSF: human recombinant granulocyte colony-stimulating factor (protein, UniProt P09919 31-207, looked up)
Granulocyte …: TPLGPASSLPQSFLLKCLEQVRKIQGDGAALQEKLVSECATYKLCHPEELVLLGHSLGIPWAPLSSCPSQALQLAGCLSQLHSGLFLYQGLLQALEGISPELGPTLDTLQLDVADFATTIWQQMEELGMAPALQPTQGAMPAFASAFQRRAGGVLVASHLQSFLEVSYRVLRHLAQP
Take B1: the “viability of untreated CD34+ and CD34− cells” value is given as “improves the viability”.
